We go through two molecules from patent US20230399384A1.

Holding throughout (settings): remark: other sources report otherwise
Assay [1] has as its target trimeric prefusion S protein of SARS-CoV-2 (SARS-CoV-2), P0DTC2.
Assay [2] has as its target T1, sCoV2-RBD (Fc-tagged RBD of SARS-CoV-2 S protein) (SARS-CoV-2; human), P0DTC2.
The target of assay [3] is T1, sCoV2-RBD (Fc-tagged RBD of SARS-CoV-2 …). In words: ELISA titration on coated sCoV2-RBD.
The target is the same in assay [4]. In words: BLI (Octet) blocking of ACE2 binding to captured sCoV2-RBD. For orientation: In BLI a coated tip is dipped into the sample, and binding shifts an interference pattern.

Read-outs that look alike come from different tables or passages of the source.

B1: CoV2-16 (antibody, V domains shown)
VH: QVQLHQWGAGLLKPSETLSRTCAVYGGSFSGYYWTWIRQAPGKGLEWIGEINHGGSTRYNPSLESRVSISVDTSKKQFSLELRSVTAADTAIYYCARGYDTNWYGDGYNWFDPWDRGTLVTVSS
VL: QAVVTQPPSVSGTPGQRVTISCSGSSSSIGSNTVHWYQHLPGTAPKLLMYNNNERPSGVPARFSGSKSGTSASLVITGLQADDEAEYYCQSYDTGLSGHVFGSGTELTVL
With B1, the Kd (in general, the constant that tells how readily two partners part at equilibrium) in assay [1] stood at 5.35 nM. For the same molecule, the EC50 in assay [2] and in assay [3] was 7.77 nM in each case. Further, the IC50 (commonly the concentration needed to halve the response being measured) in assay [4] is 6.9 µg/mL.

B2: CoV2-09 (antibody, V domains shown)
VH: QVQLHQWGAGLLKPSETLSRTCAVYGGSFSGYYWTWIRQAPGKGLEWIGEINHGGSTRYNPSLESRVSISVDTSKKQFSLELRSVTAADTAIYYCARGYDTNWYGDGYNWFDPWDRGTLVTVSS
VL: QSALTQDPSVSVALGQTVRITCQGDSLRGSFASWYRQKPGQAPVLVIFGINNRPSGVPDRFSGSSSGNTASLTITGAQAEDEADYYCNSRESNSNRILFGGGTKVTVL
B2: the Kd in assay [1] was found to be 0.94 nM. Moreover, in assay [4], the IC50 came to 3.54 µg/mL.
